Source: paper PMC11754096

Molecular target: T-complex protein ring complex (TRiC), endogenous (human (endogenous in HEK293 cells)) (UniProt P17987)
Assay: cryo-EM structure; in situ cryo-electron tomography of FIB-milled HEK Flp-In T-Rex 293 cells, template matching, subtomogram averaging and classification; open TRiC; untreated cells and cells treated with 100 µM HHT for 2 h

percent of all TRiC with a single PFD (HHT-treated cells): 18%
percent of all TRiC with a single PFD (untreated cells): 12%
percent of all TRiC with two PFD (HHT-treated cells): 2%
percent of all TRiC with two PFD (untreated cells): 1%
Substance: prefoldin (PFD), endogenous (complex)
